Source: patent publication US20240190999A1 (Molecular Partners, published 2024)
Each block holds one binder with its values, some of them ahead of it.

Assays:
[1] = target: T1, human 4-1BB on primary human CD8 T cells (human, UniProt Q07011 24-255); assay: cell-based or functional assay
[2] = target: T1, human 4-1BB on primary human CD8 T cells; assay: cell-based or functional assay; remark: listed apart in the source
[3] = target: T2, biotinylated human 4-1BB (bio.h4-1BB) (human, UniProt Q07011 24-186, limits assumed, biotinylated (site not stated)); assay: SPR (ProteOn XPR36); end of the group's range, tied to #48 by Table 15
T2 construct: also called CD137
Description: (§1) Assay set-up: Briefly, SPR measurements were performed using a ProteOn XPR36 instrument (BioRad) as described above. Biotinylated human and cynomolgus 4-1BB and human FAP were immobilized either directly or indirectly via NeutrAvidin (˜6000 RU pre-coated) on a GLC chip to reach 600 RU, 700 RU and 2000 RU, respectively. The interaction of FAP-4-1BB bispecific constructs to the coated targets was measured by injecting the bispecific constructs in a serial dilution of 50, 16.7, 5.6, 1.9 and 0.6 nM with an association of 120 s and dissociation of 1800 s using a constant flow rate of 30 μl/min. Targets were regenerated between the individual measurements using 10 mM glycine pH 2 and 124 mM H₃PO₄. The signals were double referenced against the running buffer (PBST) treated control lane.

[4] = target: T3, human 4-1BB on transfected HT1080 NF-kB-luciferase reporter cells (human, UniProt Q07011 24-255); assay: cell-based or functional assay
[5] = target: T4, human fibroblast activation protein (hFAP) (human, UniProt Q12884 26-760, limits assumed); assay: SPR (ProteOn XPR36), hFAP immobilised on GLC chip, construct as analyte
T4 construct: Recombinant soluble protein; also called human FAP; rhFAP
Description: as §1

[6] = target: T2, biotinylated human 4-1BB (bio.h4-1BB); assay: SPR (ProteOn XPR36), biotinylated h4-1BB immobilised on GLC chip, construct as analyte
Description: as §1

[7] = target: T3, human 4-1BB on transfected HT1080 …; assay: cell-based or functional assay; remark: listed apart in the source
[8] = target: T3, human 4-1BB on transfected HT1080 …; assay: cell-based or functional assay; remark: listed apart in the source
[9] = target: T4, human fibroblast activation protein …; assay: SPR (ProteOn XPR36); end of the group's range, tied to #47 by Table 15
Description: as §1

[10] = target: T2, biotinylated human 4-1BB (bio.h4-1BB); assay: SPR (ProteOn XPR36); end of the group's range, tied to #45 by Table 15
Description: as §1

[11] = target: T4, human fibroblast activation protein …; assay: SPR (ProteOn XPR36); end of the group's range, tied to #44 by Table 15
Description: as §1

T4 sequence (Q12884 26-760 limits assumed): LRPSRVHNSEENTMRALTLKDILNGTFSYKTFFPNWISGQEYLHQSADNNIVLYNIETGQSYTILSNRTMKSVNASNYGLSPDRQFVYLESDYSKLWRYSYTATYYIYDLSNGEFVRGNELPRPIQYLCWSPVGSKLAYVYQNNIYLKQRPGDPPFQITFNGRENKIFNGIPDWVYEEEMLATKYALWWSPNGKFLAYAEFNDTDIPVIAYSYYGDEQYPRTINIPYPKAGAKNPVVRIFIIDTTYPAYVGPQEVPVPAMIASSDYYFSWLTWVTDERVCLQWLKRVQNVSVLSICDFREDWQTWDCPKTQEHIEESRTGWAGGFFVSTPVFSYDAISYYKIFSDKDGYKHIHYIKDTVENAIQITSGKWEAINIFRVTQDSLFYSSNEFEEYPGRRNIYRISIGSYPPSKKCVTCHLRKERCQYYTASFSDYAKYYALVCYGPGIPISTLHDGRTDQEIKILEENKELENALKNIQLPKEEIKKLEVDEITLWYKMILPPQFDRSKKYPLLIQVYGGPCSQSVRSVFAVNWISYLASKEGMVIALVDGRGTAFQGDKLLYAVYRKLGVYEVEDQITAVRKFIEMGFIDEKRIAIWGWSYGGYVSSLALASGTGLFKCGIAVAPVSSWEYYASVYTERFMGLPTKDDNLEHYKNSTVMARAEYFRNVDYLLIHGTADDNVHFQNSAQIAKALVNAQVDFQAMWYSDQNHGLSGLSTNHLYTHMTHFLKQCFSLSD
T2 sequence (Q07011 24-186 limits assumed): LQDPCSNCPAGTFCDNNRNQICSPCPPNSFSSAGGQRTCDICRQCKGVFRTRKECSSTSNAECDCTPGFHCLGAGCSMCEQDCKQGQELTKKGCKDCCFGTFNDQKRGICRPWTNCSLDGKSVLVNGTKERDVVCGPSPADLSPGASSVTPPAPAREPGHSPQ
T1 sequence (Q07011 24-255 limits assumed): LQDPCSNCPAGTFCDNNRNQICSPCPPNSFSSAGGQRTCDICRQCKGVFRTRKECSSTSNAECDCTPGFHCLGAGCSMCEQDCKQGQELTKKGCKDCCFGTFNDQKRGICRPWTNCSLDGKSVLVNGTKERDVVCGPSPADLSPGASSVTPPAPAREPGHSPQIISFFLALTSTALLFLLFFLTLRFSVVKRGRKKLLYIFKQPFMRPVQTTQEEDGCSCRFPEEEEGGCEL
T3 sequence (Q07011 24-255 limits assumed): as above

- EC50, IFNγ production by primary human CD8 T cells (anti-CD3 plus plate-coated hFAP) [1]: 2.37 nM
- EC50, IFNγ secretion of human CD8 T cells (plate-coated hFAP) [2]: 1 to 3 nM
B1: His-MpA (His-tagged version of MpA) (designed binder)
chain: GSDLGKKLLEAARAGQDDEVRELLKAGADVNAKDYFSHTPLHLAARNGHLKIVEVLLKAGADVNAKDFAGKTPLHLAAADGHLEIVEVLLKAGADVNAQDIFGKTPADIAADAGHEDIAEVLQKAAGSPTPTPTTPTPTPTTPTPTPTGSDLGKKLLEAARAGQDDEVRELLKAGADVNAKDVLGWTPLHLAAFEGHLEIVEVLLKAGADVNAKDKKGWTPLQLAARTGHLEIVEVLLKAGADVNAKDHIGATPLHLAAWQGHPEIVEVLLKAGADVNAQDKSGKTPADLAADAGHEDIAEVLQKAAGSPTPTPTTPTPTPTTPTPTPTGSDLGQKLLKAAQEGQDDEVRELLKAGADVNAKDLRGITPLHVAAWQGHLEIVEVLLKAGADVNAKDSKGETPLHLAAFRGHLEIVEVLLKAGADVNAQDQQGETPADLAALAGHVDIAEVLQKAAGSPTPTPTTPTPTPTTPTPTPTGSDLGQKLLKAAQEGQDDEVRELLKAGADVNAKDLRGITPLHVAAWQGHLEIVEVLLKAGADVNAKDSKGETPLHLAAFRGHLEIVEVLLKAGADVNAQDQQGETPADLAALAGHVDIAEVLQKAAGSPTPTPTTPTPTPTTPTPTPTGSDLGKKLLEAARAGQDDEVRELLKAGADVNAKDYFSHTPLHLAARNGHLKIVEVLLKAGADVNAKDFAGKTPLHLAAADGHLEIVEVLLKAGADVNAQDIFGKTPADIAADAGHEDIAEVLQKAA

- Kd [3]: 0.4 to 1.5 nM
- EC50, 4-1BB activation in HT1080 reporter cells in presence of FAP-expressing CHO cells (Population 2) [4]: 0.16 nM
- Kd [5]: 0.17 nM
- Kd [6]: 0.44 nM
- EC50, 4-1BB activation in HT1080 reporter cells in presence of FAP-expressing CHO cells (Population 1) [7]: 0.28 nM
- EC50, 4-1BB activation in HT1080 reporter cells in presence of FAP-beads [8]: 3.71 nM
B2: bispecific construct #48 (designed binder)
chain: MRGSHHHHHHGSDLGEKLLVAALYGQDDEVRILLAAGADVNAKDQWGLTPLHKAALQGHLEIVEVLLKAGADVNAKDERGHTPLHWAARFGHLEIVEVLLKAGADVNAQDQKGYTPADLAALWGHEDIAEVLQKAAGSPTPTPTTPTPTPTTPTPTPTGSDLGKKLLEAARAGQDDEVRELLKAGADVNAKDQEHGSTPLHLAANYGHLEIVEVLLKAGADVNAKNWWGNTPLHLAAVYGHLEIVEVLLKAGADVNAKDNHGHTPLHLAAWYGHLEIVEVLLKAGADVNAQDKSGKTPADLAADAGHEDIAEVLQKAA
notes: 56 is used; also called FAP-4-1BB bispecific construct #48

- EC50, 4-1BB activation in HT1080 reporter cells in presence of FAP-expressing CHO cells (Population 2) [4]: 0.18 nM
- Kd [5]: 0.07 nM
- Kd [6]: 0.77 nM
- EC50, 4-1BB activation in HT1080 reporter cells in presence of FAP-expressing CHO cells (Population 1) [7]: 0.36 nM
- Kd [9]: 0.1 to 0.4 nM
- EC50, 4-1BB activation in HT1080 reporter cells in presence of FAP-beads [8]: 6.19 nM
B3: bispecific construct #47 (designed binder)
chain: MRGSHHHHHHGSDLGEKLLVAALYGQDDEVRILLAAGADVNAKDQWGLTPLHKAALQGHLEIVEVLLKAGADVNAKDERGHTPLHWAARFGHLEIVEVLLKAGADVNAQDQKGYTPADLAALWGHEDIAEVLQKAAGSPTPTPTTPTPTPTTPTPTPTGSDLGKKLLEAARAGQDDEVRELLKAGADVNAKDTYGETPLHLAAWKGHLEIVEVLLKAGADVNAKDSIGITPLHVAAHHGHLEIVEVLLKAGADVNAKDKWGRTPLHLAALLGHLEIAEVLLKAGADVNAQDKSGKTPADLAADAGHDDIAEVLQKLN
notes: 56 is used; also called FAP-4-1BB bispecific construct #47

- EC50, IFNγ production by primary human CD8 T cells (anti-CD3 plus plate-coated hFAP) [1]: 1.54 nM
- EC50, IFNγ secretion of human CD8 T cells (plate-coated hFAP) [2]: 1 to 2 nM
B4: Multispecific binding protein B (MpB) (designed binder)
chain: MRGSHHHHHHGSDLGKKLLEAARAGQDDEVRELLKAGADVNAKDYFSHTPLHLAARNGHLKIVEVLLKAGADVNAKDFAGKTPLHLAAADGHLEIVEVLLKAGADVNAQDIFGKTPADIAADAGHEDIAEVLQKAAGSPTPTPTTPTPTPTTPTPTPTGSDLGEKLLVAALYGQDDEVRELLKAGADVNAKDQWGLTPLHKAALQGHLEIVEVLLKAGADVNAKDERGHTPLHWAARFGHLEIVEVLLKAGADVNAQDQKGYTPADLAALWGHEDIAEVLQKAAGSPTPTPTTPTPTPTTPTPTPTGSDLGQKLLKAAQEGQDDEVRELLKAGADVNAKDLRGITPLHVAAWQGHLEIVEVLLKAGADVNAKDSKGETPLHLAAFRGHLEIVEVLLKAGADVNAQDQQGETPADLAALAGHVDIAEVLQKAAGSPTPTPTTPTPTPTTPTPTPTGSDLGQKLLKAAQEGQDDEVRELLKAGADVNAKDLRGITPLHVAAWQGHLEIVEVLLKAGADVNAKDSKGETPLHLAAFRGHLEIVEVLLKAGADVNAQDQQGETPADLAALAGHVDIAEVLQKAAGSPTPTPTTPTPTPTTPTPTPTGSDLGKKLLEAARAGQDDEVRELLKAGADVNAKDYFSHTPLHLAARNGHLKIVEVLLKAGADVNAKDFAGKTPLHLAAADGHLEIVEVLLKAGADVNAQDIFGKTPADIAADAGHEDIAEVLQKAA

- EC50, 4-1BB activation in HT1080 reporter cells in presence of FAP-expressing CHO cells (Population 2) [4]: 0.37 nM
- Kd [5]: 0.27 nM
- Kd [6]: 1.15 nM
- EC50, 4-1BB activation in HT1080 reporter cells in presence of FAP-expressing CHO cells (Population 1) [7]: 0.73 nM
- EC50, 4-1BB activation in HT1080 reporter cells in presence of FAP-beads [8]: 5.85 nM
B5: bispecific construct #46 (designed binder)
chain: MRGSHHHHHHGSDLGEKLLVAALYGQDDEVRILLAAGADVNAKDQWGLTPLHKAALQGHLEIVEVLLKAGADVNAKDERGHTPLHWAARFGHLEIVEVLLKAGADVNAQDQKGYTPADLAALWGHEDIAEVLQKAAGSPTPTPTTPTPTPTTPTPTPTGSDLGRKLLQAAQLGQDDEVRELLKAGADVNAKDSRGITPLHVAAWQGHLEIVEVLLKASADVNAKDHAGITPLHLAAFLGHLEIVEVLLKAGADVNAQDQEGRTPADLAALQGHEDIAKVLQKLN
notes: 56 is used; also called FAP-4-1BB bispecific construct #46

- EC50, 4-1BB activation in HT1080 reporter cells in presence of FAP-expressing CHO cells (Population 2) [4]: 1.04 nM
- Kd [5]: 0.17 nM
- Kd [6]: 0.86 nM
- EC50, 4-1BB activation in HT1080 reporter cells in presence of FAP-expressing CHO cells (Population 1) [7]: 0.91 nM
- EC50, 4-1BB activation in HT1080 reporter cells in presence of FAP-beads [8]: 6.52 nM
B6: bispecific construct #49 (designed binder)
chain: MRGSHHHHHHGSDLGEKLLVAALYGQDDEVRILLAAGADVNAKDQWGLTPLHKAALQGHLEIVEVLLKAGADVNAKDERGHTPLHWAARFGHLEIVEVLLKAGADVNAQDQKGYTPADLAALWGHEDIAEVLQKAAGSPTPTPTTPTPTPTTPTPTPTGSDLGKKLLVAANVGQDDEVRILLAAGADVNAKDYHGYTPLHHAATYGHLEIVEVLLKAGADVNAKDQTGLTPLHLAAAKGHLEIVEVLLKAGADVNAQDHHGYTPADLAAFVGHEDIAVVLQKLN
notes: 56 is used; also called FAP-4-1BB bispecific construct #49

- EC50, 4-1BB activation in HT1080 reporter cells in presence of FAP-expressing CHO cells (Population 2) [4]: 0.39 nM
- Kd [5]: 0.33 nM
- Kd [6]: 1.47 nM
- EC50, 4-1BB activation in HT1080 reporter cells in presence of FAP-expressing CHO cells (Population 1) [7]: 0.67 nM
- Kd [10]: 0.4 to 1.5 nM
- EC50, 4-1BB activation in HT1080 reporter cells in presence of FAP-beads [8]: 5.15 nM
B7: bispecific construct #45 (designed binder)
chain: MRGSHHHHHHGSDLGEKLLVAALYGQDDEVRILLAAGADVNAKDQWGLTPLHKAALQGHLEIVEVLLKAGADVNAKDERGHTPLHWAARFGHLEIVEVLLKAGADVNAQDQKGYTPADLAALWGHEDIAEVLQKAAGSPTPTPTTPTPTPTTPTPTPTGSDLGDKLLHAAYYGQDDEVRILLAAGADVNAKDTQGLTPLHLAAAIGHLEIVEVLLKAGADVNAKDAYGETPLHLVASRGHLEIVEVLLKAGADVNAQDYSGRTPADLAAEYGHEDIAEVLQKLN
notes: 56 is used; also called FAP-4-1BB bispecific construct #45

- EC50, 4-1BB activation in HT1080 reporter cells in presence of FAP-expressing CHO cells (Population 2) [4]: 0.36 nM
- Kd [5]: 0.36 nM
- Kd [6]: 1.45 nM
- Kd [11]: 0.1 to 0.4 nM
- EC50, 4-1BB activation in HT1080 reporter cells in presence of FAP-expressing CHO cells (Population 1) [7]: 0.47 nM
- EC50, 4-1BB activation in HT1080 reporter cells in presence of FAP-beads [8]: 4.59 nM
B8: bispecific construct #44 (designed binder)
chain: MRGSHHHHHHGSDLGEKLLVAALYGQDDEVRILLAAGADVNAKDQWGLTPLHKAALQGHLEIVEVLLKAGADVNAKDERGHTPLHWAARFGHLEIVEVLLKAGADVNAQDQKGYTPADLAALWGHEDIAEVLQKAAGSPTPTPTTPTPTPTTPTPTPTGSDLGQKLLKAAQEGQDDEVRELLKAGADVNAKDLRGITPLHVAAWQGHLEIVEVLLKAGADVNAKDSKGETPLHLAAFRGHLEIVEVLLKAGADVNAQDQQGETPADLAALAGHVDIAEVLQKLN
notes: also called FAP-4-1BB bispecific construct #44
